The target of one data set is rabbit IgG. Nature of the data set: Equilibrium competition titration of soluble tGp2, rabbit IgG. Particulars: soluble protein, read-out: Affinity (KD) of soluble tGp2. In kind it is binding. Here is the method:
Soluble affinity of select tGp2 proteins was determined using equilibrium competition titration, as described previously (Lipovsek et al., J Mol Biol, 2007, 368:1024-1041). Briefly, the soluble tGp2 clone was allowed sufficient time to reach 90% equilibrium with biotin-conjugated target over a range of tGp2 concentrations. Yeast cells displaying the same tGp2 clone and yeast cells harboring no plasmid (to aid in pelleting) were added to the solution, and allowed to equilibrate for six days. Cells were washed, labeled for target binding and analyzed with flow cytometry, as above.

A short description of data set [1]: Circular dichroism thermal denaturation. The data set is classed as physicochemical. Particulars: ellipticity at 218 nm, 24-98 °C, PBS. On the procedure:
Purified tGp2 was lyophilized and resuspended in PBS to a concentration of 0.3-0.9 mg mL^−1. Ellipticity was measured from 260 to 200 nm on a Jasco J-815 spectrophotometer (Jasco, Inc., Easton, Md.) in a quartz cuvette with 1 mm path length. Thermal denaturation was carried out by measuring the ellipticity at 218 nm from 24° C. to 98° C. and Tm was calculated from a standard two-state unfolding curve.
(In general: Circular dichroism is widely used to follow secondary structure.)

Another data set has as its target T1, EGFR (Homo sapiens, UniProt P00533).
T1 construct: endogenous in cells; host or cells: A431, MDA-MB-231, MCF7
The experiment in a line: In vitro cell labeling with tGp2-EGFR-His6, flow cytometry. In kind it is cell-based. Here is the method:
Cells were pelleted, washed with PBSA, and labeled with fluorescein-conjugated rabbit anti-His6 antibody for 15 minutes at 4° C. Cells were pelleted and washed, and analyzed on an Accuri C6 flow cytometer (BD Biosciences, San Jose, Calif.).
Cell lines were labeled as above with biotinylated tGp2-EGFR-His6. Except, Alexa Fluor 488-conjugated streptavidin was used as the secondary label.
Additionally, ligand specificity was examined through target blocking. […] Cells were pelleted, washed, and labeled with Alexa Fluor 488-conjugated streptavidin for 15 minutes. After washing, flow cytometry was used to compare fluorescence of blocked and unblocked samples.
In general terms: Flow cytometry measures light scatter and fluorescence of single cells or particles in a stream.

In the next data set the target is soluble EGFR ectodomain (Homo sapiens, UniProt P00533). Nature of the data set: Yeast-displayed Gp2 binding to soluble EGFR ectodomain. Particulars: 1 nM soluble EGFR ectodomain. On the procedure:
The plasmid containing the clone of interest was transformed into yeast using the Frozen EZ Transformation Kit II (Zymo Research Corp., Irvine, Calif.), plated on SD medium plates and then grown directly in SG medium at 30° C. for at least 12 hours to induce protein expression. Cells were pelleted and washed with PBSA (phosphate buffered saline with 0.1% bovine serum albumin) and resuspended in PBSA containing biotin conjugated target over a range of concentrations. […] The samples were incubated at 22° C. for an appropriate amount of time to reach 90% of the approach to equilibrium. After incubation, cells were washed and labeled with mouse anti-c-myc antibody (clone 9E10) for 10-15 minutes, washed, and labeled with fluorescein-conjugated goat anti-mouse antibody and Alexa Fluor 647-conjugated streptavidin for 10-15 minutes. Yeast were washed and Alexa Fluor 647 fluorescence was analyzed on a FACSCalibur flow cytometer (BD Biosciences, San Jose, Calif.). The relative fraction bound for cells displaying tGp2 was determined by subtracting background fluorescence of an unlabeled control and normalizing to the maximum saturated signal at high concentrations. The equilibrium dissociation constant, KD, was identified as the concentration where half-maximal binding occurred.

In the case of “GaR 3.2.3: Rabbit IgG-binding tGp2 clone; loop 1 HSVHGY (SEQ ID NO:44), loop 2 GNALGY (SEQ ID NO:45), E44F, W45G (KFWATVHSVHGYFEVPVYAETLDEALELAFGQYGNALGYVTRVRP)”, the Kd at rabbit IgG is 1 nM. Further, the “Melting temperature (Tm) by circular dichroism” value (from here on “Melting temperature (Tm)”) in data set [1] was determined as 80 °C.

On to “tGp2 wild type: Truncated gene protein 2 of T7 phage, 5.2 kDa, 45 amino acids, SEQ ID NO:1 (KFWATVESSEHSFEVPVYAETLDEALELAEWQYYPAGFEVTRVRP; Enterobacteria phage T7)”, for which the “Melting temperature (Tm)” value in data set [1] is 67 °C.

Turning to “GaE 2.3.3: EGFR-specific tGp2 scaffold; loop 1 SRGDSYW (SEQ ID NO:2), loop 2 PMYHIYY (SEQ ID NO:3), frame mutation W45R (KFWATVSRGDSYWFEVPVYAETLDEALELAERQYPMYHIYYVTRVRP)”, the “Binding to human cancer cell lines” value in the data set with EGFR (0 or 1 μM Gp2 anti-EGFR, flow cytometry) is listed as “binds to human cancer cell lines in an EGFR-dependent manner”. The “Blocking of labeled Gp2 binding by unlabeled Gp2” value with EGFR (A431 cells, 1 μM unlabeled Gp2) is on record as “blocks binding of labeled Gp2 to A431 cells”. Besides, the Kd with EGFR (A431 cells, His tag, anti-His6-FITC, flow cytometry, read-out: Affinity for A431 cells (average of two experiments)) came to 50 nM. Moreover, in data set [1], the “Melting temperature (Tm)” value was 81 °C. Moreover, the “Binding of soluble EGFR ectodomain by displaying yeast” value in the data set with soluble EGFR ectodomain was “effectively bind”.

Values taken from US10287572B2, “Protein scaffolds and methods of use” (REGENTS OF THE UNIVERSITY OF MINNESOTA, priority 2013, dated 2019).
